Test results reported in paper PMC9482650, “Quantitative fragmentomics allow affinity mapping of interactomes” (Nature Communications, 2022).

T1: MPP2, Q14168
T1 sequence (Q14168 180-250, limits assumed, looked up): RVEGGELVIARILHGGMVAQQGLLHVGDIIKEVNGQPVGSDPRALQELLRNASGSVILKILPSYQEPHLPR

T2: MPP7, Q5T2T1
T2 sequence (Q5T2T1 134-230, limits assumed, looked up): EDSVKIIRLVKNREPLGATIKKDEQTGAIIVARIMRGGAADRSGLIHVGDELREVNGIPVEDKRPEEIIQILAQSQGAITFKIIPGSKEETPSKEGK

T3: APBA2_2, Q99767
T3 sequence (Q99767 654-744, limits assumed, looked up): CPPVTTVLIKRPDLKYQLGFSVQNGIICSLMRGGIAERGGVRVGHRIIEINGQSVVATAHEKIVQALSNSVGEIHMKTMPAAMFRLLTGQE

T4: RHPN1, Q8TCX5
T4 sequence (Q8TCX5 508-602, limits assumed, looked up): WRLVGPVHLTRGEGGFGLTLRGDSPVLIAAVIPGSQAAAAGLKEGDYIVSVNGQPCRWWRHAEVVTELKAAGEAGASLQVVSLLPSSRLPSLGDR

T5: NHERF3_1, Q5T2W1
T5 sequence (Q5T2W1 4-100, limits assumed, looked up): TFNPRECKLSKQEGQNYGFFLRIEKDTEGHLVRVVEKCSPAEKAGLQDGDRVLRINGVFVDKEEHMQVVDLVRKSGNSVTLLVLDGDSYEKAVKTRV

T6: TJP3_3, O95049
T6 sequence (O95049 375-456, limits assumed, looked up): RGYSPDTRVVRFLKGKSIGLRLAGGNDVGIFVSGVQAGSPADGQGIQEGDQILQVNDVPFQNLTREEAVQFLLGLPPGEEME

T7: MPDZ_5, O75970
T7 sequence (O75970 695-796, limits assumed, looked up): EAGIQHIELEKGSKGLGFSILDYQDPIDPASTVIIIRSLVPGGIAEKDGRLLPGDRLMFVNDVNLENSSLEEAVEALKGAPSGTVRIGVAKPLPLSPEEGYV

T8: SYNJ2BP, P57105
T8 sequence (P57105 8-110, limits assumed, looked up): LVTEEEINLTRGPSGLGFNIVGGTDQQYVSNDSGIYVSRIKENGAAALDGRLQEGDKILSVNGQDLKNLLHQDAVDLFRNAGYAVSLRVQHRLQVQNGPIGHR

T9: MPP6, Q9NZW5
T9 sequence (Q9NZW5 125-219, limits assumed, looked up): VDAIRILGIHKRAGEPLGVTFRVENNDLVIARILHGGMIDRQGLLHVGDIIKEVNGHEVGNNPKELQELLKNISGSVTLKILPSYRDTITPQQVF

T10: LRRC7, Q96NW7
T10 sequence (Q96NW7 1440-1537, limits assumed, looked up): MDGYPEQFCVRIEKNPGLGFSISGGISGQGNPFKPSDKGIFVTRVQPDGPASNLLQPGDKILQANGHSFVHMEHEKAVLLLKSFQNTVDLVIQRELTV

T11: GRIP1_4, Q9Y3R0
T11 sequence (Q9Y3R0 467-571, limits assumed, looked up): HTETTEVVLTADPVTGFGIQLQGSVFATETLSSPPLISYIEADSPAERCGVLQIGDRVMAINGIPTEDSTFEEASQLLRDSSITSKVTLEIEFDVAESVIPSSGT

T12: PDZD7_3, Q9H5P4
T12 sequence (Q9H5P4 857-944, limits assumed, looked up): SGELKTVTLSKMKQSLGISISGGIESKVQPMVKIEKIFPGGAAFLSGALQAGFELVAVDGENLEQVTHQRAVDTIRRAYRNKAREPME

T13: PDZD2_2, O15018
T13 sequence (O15018 329-429, limits assumed, looked up): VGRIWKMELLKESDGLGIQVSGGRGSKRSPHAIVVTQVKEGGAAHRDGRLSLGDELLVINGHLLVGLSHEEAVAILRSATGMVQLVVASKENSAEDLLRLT


Legend:
Test in all cases: holdup assay
Set-up in all cases: key: below the threshold = too weak to quantify, mostly under pKd 3.1 to 4
Conditions in all cases: plain residues with an end cap or a label only (N-terminal biotin on a linker: ado-ado)
IL16_1, Q14005 = target: IL16_1, Q14005
LNX1_2, Q8TBB1 = target: LNX1_2, Q8TBB1
MPP2, Q14168 = target: T1, MPP2, Q14168
DLG1_1, Q12959 = target: DLG1_1, Q12959
MPP7, Q5T2T1 = target: T2, MPP7, Q5T2T1
SCRIB_2, Q14160 = target: SCRIB_2, Q14160
APBA2_2, Q99767 = target: T3, APBA2_2, Q99767
RHPN1, Q8TCX5 = target: T4, RHPN1, Q8TCX5
NHERF3_1, Q5T2W1 = target: T5, NHERF3_1, Q5T2W1
TJP3_3, O95049 = target: T6, TJP3_3, O95049
MPDZ_5, O75970 = target: T7, MPDZ_5, O75970
HTRA2, O43464 = target: HTRA2, O43464
GRIP2_6, Q9C0E4 = target: GRIP2_6, Q9C0E4
SYNJ2BP, P57105 = target: T8, SYNJ2BP, P57105
MPP6, Q9NZW5 = target: T9, MPP6, Q9NZW5
GORASP1, Q9BQQ3 = target: GORASP1, Q9BQQ3
LRRC7, Q96NW7 = target: T10, LRRC7, Q96NW7
GRIP1_4, Q9Y3R0 = target: T11, GRIP1_4, Q9Y3R0
LNX1_1, Q8TBB1 = target: LNX1_1, Q8TBB1
PDZD7_3, Q9H5P4 = target: T12, PDZD7_3, Q9H5P4
DLG4_3, P78352 = target: DLG4_3, P78352
FRMPD2_3, Q68DX3 = target: FRMPD2_3, Q68DX3
MAGI2_4, Q86UL8 = target: MAGI2_4, Q86UL8
MAGI1_2, Q96QZ7 = target: MAGI1_2, Q96QZ7
PDZD2_2, O15018 = target: T13, PDZD2_2, O15018

GRIP2_6, Q9C0E4, sequence (Q9C0E4 648-740): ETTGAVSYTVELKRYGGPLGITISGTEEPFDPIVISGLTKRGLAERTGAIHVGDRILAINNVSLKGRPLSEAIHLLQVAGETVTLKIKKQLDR
FRMPD2_3, Q68DX3, sequence (Q68DX3 1073-1166): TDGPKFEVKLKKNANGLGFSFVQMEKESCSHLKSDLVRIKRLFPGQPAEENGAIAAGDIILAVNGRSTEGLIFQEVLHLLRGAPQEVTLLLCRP
GORASP1, Q9BQQ3, sequence (Q9BQQ3 1-208): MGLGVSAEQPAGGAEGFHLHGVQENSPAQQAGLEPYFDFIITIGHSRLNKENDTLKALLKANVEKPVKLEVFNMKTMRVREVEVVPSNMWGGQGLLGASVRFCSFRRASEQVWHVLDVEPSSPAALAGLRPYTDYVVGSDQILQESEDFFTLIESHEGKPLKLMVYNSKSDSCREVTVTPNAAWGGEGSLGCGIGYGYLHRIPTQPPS
SCRIB_2, Q14160, sequence (Q14160 857-960): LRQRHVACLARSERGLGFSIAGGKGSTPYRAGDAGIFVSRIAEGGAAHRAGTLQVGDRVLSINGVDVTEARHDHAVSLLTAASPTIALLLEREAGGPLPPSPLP
HTRA2, O43464, sequence (O43464 355-458): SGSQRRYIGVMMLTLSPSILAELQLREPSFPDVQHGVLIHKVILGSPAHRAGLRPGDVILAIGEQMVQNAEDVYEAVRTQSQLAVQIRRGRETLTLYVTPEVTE
MAGI1_2, Q96QZ7, sequence (Q96QZ7 456-580): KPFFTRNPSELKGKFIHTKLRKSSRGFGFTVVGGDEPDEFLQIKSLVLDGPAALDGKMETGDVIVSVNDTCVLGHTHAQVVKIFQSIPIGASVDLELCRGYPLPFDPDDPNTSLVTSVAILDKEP
DLG4_3, P78352, sequence (P78352 306-403): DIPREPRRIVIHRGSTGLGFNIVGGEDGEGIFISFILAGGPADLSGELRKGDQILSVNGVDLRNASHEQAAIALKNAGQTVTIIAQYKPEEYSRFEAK
IL16_1, Q14005, sequence (Q14005 210-306): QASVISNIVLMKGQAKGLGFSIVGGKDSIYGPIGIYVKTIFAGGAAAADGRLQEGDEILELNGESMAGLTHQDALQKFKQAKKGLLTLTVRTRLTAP
LNX1_2, Q8TBB1, sequence (Q8TBB1 371-470): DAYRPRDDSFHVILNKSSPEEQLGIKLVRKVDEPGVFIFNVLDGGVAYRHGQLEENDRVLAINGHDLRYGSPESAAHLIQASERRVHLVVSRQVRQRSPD
LNX1_1, Q8TBB1, sequence (Q8TBB1 261-371): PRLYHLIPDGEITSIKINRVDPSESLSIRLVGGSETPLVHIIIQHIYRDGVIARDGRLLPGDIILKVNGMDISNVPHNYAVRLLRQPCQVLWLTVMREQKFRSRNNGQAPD
MAGI2_4, Q86UL8, sequence (Q86UL8 772-865): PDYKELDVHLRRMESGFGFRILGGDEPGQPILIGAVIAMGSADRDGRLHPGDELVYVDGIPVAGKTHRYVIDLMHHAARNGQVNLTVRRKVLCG

Row | Binder | pKd (IL16_1, Q14005) | pKd (LNX1_2, Q8TBB1) | pKd (MPP2, Q14168) | pKd (DLG1_1, Q12959) | pKd (MPP7, Q5T2T1) | pKd (SCRIB_2, Q14160) | pKd (APBA2_2, Q99767) | pKd (RHPN1, Q8TCX5) | pKd (NHERF3_1, Q5T2W1) | pKd (TJP3_3, O95049) | pKd (MPDZ_5, O75970) | pKd (HTRA2, O43464) | pKd (GRIP2_6, Q9C0E4) | pKd (SYNJ2BP, P57105) | pKd (MPP6, Q9NZW5) | pKd (GORASP1, Q9BQQ3) | pKd (LRRC7, Q96NW7) | pKd (GRIP1_4, Q9Y3R0) | pKd (LNX1_1, Q8TBB1) | pKd (PDZD7_3, Q9H5P4) | other results
1 | PPGKHLVTEV [KCNA7, Q96RP8] | 3.5 | 3.53 | below the threshold | 4.76 | below the threshold | 4.08 | below the threshold | 4.37 | below the threshold | below the threshold | below the threshold | below the threshold | below the threshold | 4.86 | below the threshold | below the threshold | 3.96 | below the threshold | 4.22 | 5.2 | pKd (DLG4_3, P78352): 4.16; pKd (FRMPD2_3, Q68DX3): below the threshold; pKd (MAGI2_4, Q86UL8): 4.48; pKd (MAGI1_2, Q96QZ7): 4.24; pKd (PDZD2_2, O15018): 4.62
2 | DDASLPVSDV [PLEKHA1, Q9HB21] | 3.89 | below the threshold | below the threshold | below the threshold | below the threshold | below the threshold | below the threshold | 4.46 | below the threshold | below the threshold | below the threshold | below the threshold | below the threshold | 3.59 | below the threshold | below the threshold | below the threshold | below the threshold | 4.91 | 5.22 | pKd (DLG4_3, P78352): below the threshold; pKd (FRMPD2_3, Q68DX3): below the threshold; pKd (MAGI2_4, Q86UL8): below the threshold; pKd (MAGI1_2, Q96QZ7): below the threshold; pKd (PDZD2_2, O15018): 5.49
3 | STKRKLASAV [NCF1, P14598] | 3.52 | below the threshold | below the threshold | 3.68 | below the threshold | below the threshold | below the threshold | below the threshold | below the threshold | below the threshold | below the threshold | below the threshold | below the threshold | 4.85 | below the threshold | below the threshold | below the threshold | below the threshold | below the threshold | below the threshold | pKd (DLG4_3, P78352): 3.67; pKd (FRMPD2_3, Q68DX3): below the threshold; pKd (MAGI2_4, Q86UL8): below the threshold; pKd (MAGI1_2, Q96QZ7): 5.08; pKd (PDZD2_2, O15018): 4.51
4 | SPDRDRESIV [SCN5A, Q14524] | 5.08 | below the threshold | below the threshold | 4.28 | below the threshold | below the threshold | below the threshold | 4.89 | 3.72 | below the threshold | below the threshold | below the threshold | below the threshold | 4.47 | below the threshold | 3.71 | 3.48 | below the threshold | 3.88 | 4.63 | pKd (DLG4_3, P78352): below the threshold; pKd (FRMPD2_3, Q68DX3): 3.48; pKd (MAGI2_4, Q86UL8): 3.63; pKd (MAGI1_2, Q96QZ7): 3.51; pKd (PDZD2_2, O15018): 5.4
5 | ARESQKVSHV [FAM110B, Q8TC76] | 4.17 | below the threshold | below the threshold | 3.95 | below the threshold | below the threshold | below the threshold | 4.72 | below the threshold | below the threshold | below the threshold | below the threshold | below the threshold | 4.31 | below the threshold | 3.8 | below the threshold | below the threshold | 3.97 | 4.63 | pKd (DLG4_3, P78352): below the threshold; pKd (FRMPD2_3, Q68DX3): below the threshold; pKd (MAGI2_4, Q86UL8): below the threshold; pKd (MAGI1_2, Q96QZ7): 4.09; pKd (PDZD2_2, O15018): 5.17
6 | TNSRHGETTV [FZD2, Q14332] | 3.76 | 3.78 | below the threshold | 4.76 | below the threshold | 4.42 | below the threshold | 4.16 | below the threshold | below the threshold | below the threshold | below the threshold | below the threshold | 5.08 | below the threshold | 3.88 | below the threshold | below the threshold | below the threshold | 4.26 | pKd (DLG4_3, P78352): 4.24; pKd (FRMPD2_3, Q68DX3): 3.62; pKd (MAGI2_4, Q86UL8): 4.1; pKd (MAGI1_2, Q96QZ7): 4.2; pKd (PDZD2_2, O15018): 4.18
